These results are taken from doi:10.1101/2020.12.24.423824 (bioRxiv, 2020).

The experiment addresses RlucII-Rab7A (UniProt P51149 1-207). In words: FRET or BRET. (In general: In BRET a luciferase serves as donor, and the signal depends on an acceptor being close.)

RlucII-Rab7A, sequence (P51149 whole entry): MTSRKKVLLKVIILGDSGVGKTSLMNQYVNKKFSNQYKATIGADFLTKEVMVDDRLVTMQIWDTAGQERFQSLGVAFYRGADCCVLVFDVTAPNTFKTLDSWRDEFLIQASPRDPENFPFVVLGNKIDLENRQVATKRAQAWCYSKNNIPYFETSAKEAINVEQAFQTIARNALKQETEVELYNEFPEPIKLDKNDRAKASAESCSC

B1: GFP10-CLN3 (natural protein, UniProt Q13286 1-438, looked up)
chain: MGGCAGSRRRFSDSEGEETVPEPRLPLLDHQGAHWKNAVGFWLLGLCNNFSYVVMLSAAHDILSHKRTSGNQSHVDPGPTPIPHNSSSRFDCNSVSTAAVLLADILPTLVIKLLAPLGLHLLPYSPRVLVSGICAAGSFVLVAFSHSVGTSLCGVVFASISSGLGEVTFLSLTAFYPRAVISWWSSGTGGAGLLGALSYLGLTQAGLSPQQTLLSMLGIPALLLASYFLLLTSPEAQDPGGEEEAESAARQPLIRTEAPESKPGSSSSLSLRERWTVFKGLLWYIVPLVVVYFAEYFINQGLFELLFFWNTSLSHAQQYRWYQMLYQAGVFASRSSLRCCRIRFTWALALLQCLNLVFLLADVWFGFLPSIYLVFLIILYEGLLGGAAYVNTFHNIALETSDEHREFAMAATCISDTLGISLSGLLALPLHDFLCQLS
Regarding B1, the “fold increase of BRET50 in CLN5KO cells against wild-type HeLa cells” value turned out to be 2.85 fold.

B2: RILP-GFP10 (natural protein, UniProt Q96NA2 1-401, looked up)
chain: MEPRRAAPGVPGWGSREAAGSASAAELVYHLAGALGTELQDLARRFGPEAAAGLVPLVVRALELLEQAAVGPAPDSLQVSAQPAEQELRRLREENERLRRELRAGPQEERALLRQLKEVTDRQRDELRAHNRDLRQRGQETEALQEQLQRLLLVNAELRHKLAAMQTQLRAAQDRERERQQPGEAATPQAKERARGQAGRPGHQHGQEPEWATAGAGAPGNPEDPAEAAQQLGRPSEAGQCRFSREEFEQILQERNELKAKVFLLKEELAYFQRELLTDHRVPGLLLEAMKVAVRKQRKKIKAKMLGTPEEAESSEDEAGPWILLSDDKGDHPPPPESKIQSFFGLWYRGKAESSEDETSSPAPSKLGGEEEAQPQSPAPDPPCSALHEHLCLGASAAPEA
For the molecule B2, the “fold increase of BRET50 in CLN5KO cells against wild-type HeLa cells” value is 3 fold.
